The target in test [1] is T1, gp120 antigen of the YU2.DG HIV strain, His-tagged (HIV-1 strain YU2.DG, UniProt P35961 32-498).
T1 construct: domain: gp120; also called gp120-YU2.DG; gp120-YU2
The test is described as follows: flow cytometry on engineered primary human and murine B cells. Background: A flow cytometer gives signals particle by particle.

The target in test [2] is T1, gp120 antigen of the YU2.DG HIV strain, …. The test is described as follows: ELISA (FIG. 15A). In general terms: An ELISA detects its analyte on a solid surface through an enzyme-linked reagent.
Experimental: Enzyme Linked Immunosorbent assay. […] Plates were washed with PBST and blocked for two hours with 5% BSA in PBST, washed again and detection antibodies, anti-mouse IgA(abcam) or anti-mouse IgG or anti-mouse IgG1 or anti-mouse IgM (Jackson ImmunoResearch) were provided for an additional incubation of two hours at 2 μg/ml in PBST. Before detection with QuantaBlu (ThermoFisher) according to manufacturer protocols, plates were washed for an additional round. Detection was done in a Synergy M1 Plate reader (Biotek). The concentration of antigen specific antibodies was determined by reference to the dilution factor of the standard curve.

B1: 3BNC117 expressed as a membranal B cell receptor (BCR) on engineered B cells (antibody, V domains shown)
VH: QVQLLQSGAAVTKPGASVRVSCEASGYNIRDYFIHWWRQAPGQGLQWVGWINPKTGQPNNPRQFQGRVSLTRHASWDFDTFSFYMDLKALRSDDTAVYFCARQRSDYWDFDVWGSGTQVTVSS
VL: DIQMTQSPSSLSASVGDTVTITCQANGYLNWYQQRRGKAPKLLIYDGSKLERGVPSRFSGRRWGQEYNLTINNLQPEDIATYFCQVYEFVVPGTRLDLK
notes: also called 3BNC117 BCR; ADN171
Turning to B1, the binding result in test [1] is “binds”.

B2: 3BNC117 antibody, recombinant, expressed in Expi293F cells and purified (antibody, V domains shown)
VH: QVQLLQSGAAVTKPGASVRVSCEASGYNIRDYFIHWWRQAPGQGLQWVGWINPKTGQPNNPRQFQGRVSLTRHASWDFDTFSFYMDLKALRSDDTAVYFCARQRSDYWDFDVWGSGTQVTVSS
VL: DIQMTQSPSSLSASVGDTVTITCQANGYLNWYQQRRGKAPKLLIYDGSKLERGVPSRFSGRRWGQEYNLTINNLQPEDIATYFCQVYEFVVPGTRLDLK
notes: also called pADN210 (light chain) / pADN211 (heavy chain)
On to B2, for which the binding result in test [2] was “binds”.
